From US20090004190A1, “Rage Fusion Proteins And Methods Of Use” (priority 2006, published 2009) come the findings set out here.

Assay [1] has as its system transgenic mice expressing human Swedish mutant APP. Kind of assay: Mouse model of AD (APP transgenic mice): amyloid deposition and Morris water maze. In kind it is in vivo. The procedure: Experiments were performed to evaluate whether TTP-4000 could affect amyloid formation and cognitive dysfunction in a mouse model of AD. The experiments utilized transgenic mice expressing the human Swedish mutant amyloid precursor protein (APP) under the control of the PDGF-B chain promoter. Over time, these mice generate high levels of the RAGE ligand, amyloid beta (Aβ).
The APP mice (male) used in this experiment were designed by microinjection of the human APP gene (with the Swedish and London mutations) into mouse eggs under the control of the platelet-derived growth factor B (PDGF-B) chain gene promoter. The mice were generated on a C57BL/6 background and were developed by Molecular Therapeutics Inc. Animals were fed ad libitum and maintained by brother sister mating. The mice generated from this construct develop amyloid deposits starting at 6 months of age. Animals were aged for 6 months and then maintained for 90 days and sacrificed for amyloid quantification.
APP transgenic mice were administered vehicle or TTP4000 every other day [qod (i.p.)] for 90 days starting at 6 months of age. At the end of the experiment, animals were sacrificed and examined for Aβ plaque burden in the brain (i.e., plaque number). A 6-month control APP group was used to determine the baseline of amyloid deposits. In addition, at the end of the study, the animals were subjected to behavioral (Morris water maze) analysis. The investigators were blinded to the study compounds. Samples were given to the mice at 0.25 ml/mouse/every other day.
For histological examination, the animals were anesthetized with an intraperitoneal injection (IP) of sodium pentobarbital (50 mg/kg). The animals were transcardially perfused with 4° C., phosphate-buffered saline (PBS) followed by 4% paraformaldehyde. The brains were removed and placed in 4% paraformaldehyde over night. The brains were processed to paraffin and embedded. Ten serial 30-μm thick sections through the brain were obtained. Sections were subjected to primary antibody overnight at 4° C. (Aβ peptide antibody) in order to detect the amyloid deposits in the brain of the transgenic animals (Guo et al., J. Neurosci., 22:5900-5909 (2002)). Sections were washed in Tris-buffered saline (TBS) and secondary antibody was added and incubated for 1 hour at room temperature. After washing, the sections were incubated as instructed in the Vector ABC Elite kit (Vector Laboratories) and stained with […] (DAB). The reactions were stopped in water and cover-slipped after treatment with xylene. The amyloid area in each section was determined with a computer-assisted image analysis system, consisting of a Power Macintosh computer equipped with a Quick Capture frame grabber card, Hitachi CCD camera mounted on an Olympus microscope and camera stand. NIH Image Analysis Software, v. 1.55 was used. The images were captured and the total area of amyloid was determined over the ten sections. A single operator blinded to treatment status performed all measurements. Summing the amyloid volumes of the sections and dividing by the total number of sections was done to calculate the amyloid volume.
For quantitative analysis, an enzyme-linked immunosorbent assay (ELISA) was used to measure the levels of human total Aβ, Aβtotal and Aβ1-42 in the brains of APP transgenic mice (Biosource International, Camarillo, Calif.). Aβtotal and Aβ1-42 were extracted from mouse brains by guanidine hydrochloride and quantified as described by the manufacturer. […]

The test system of assay [2] is Zucker diabetic rats, restenosis following vascular injury. Description: Diabetic rat model of restenosis (balloon injury of left common carotid artery). Format: in vivo. The note with it: for Luminal area / Medial area: IP, 21 days. The protocol: In these experiments, balloon injury of left common carotid artery was performed in Zucker diabetic and nondiabetic rats using standard procedure. […] A maintenance dose was delivered every other day until day 7 after injury (i.e., at day 1, 3, 5 and 7 after injury). The maintenance dose was high=1 mg/animal for one group, or low=0.3 mg/animal for the second group. To measure vascular smooth muscle cell (VSMC) proliferation, animals were sacrificed at 4 days and 21 days after injury.
For the measurement of cell proliferation, 4 day animals received intraperitoneal injection of bromodeoxyuridine (BrDdU) 50 mg/kg at 18, 12, and 2 hours before euthanasia. After sacrifice, the entire left and right carotid arteries were harvested. Specimens were stored in Histochoice for at least 24 hours before embedding. Assessment of VSMC proliferation was performed using mouse anti-BrdU monoclonal antibody. A fluorescence labeled goat anti-mouse secondary antibody was applied. The number of BrdU-positive nuclei per section were counted by two observers blinded to the treatment regimens.
The remaining rats were sacrificed at 21 days for morphometric analysis. Morphometric analyses were performed by an observer blinded to the study groups, using computerized digital microscopic planimetry software Image-Pro Plus on serial sections, ([…]) carotid arteries stained by Van Gieson staining. All data were expressed as mean±SD. Statistical analysis was performed with use of SPSS software. Continuous variables were compared using unpaired t tests. A values of P≦0.05 was considered to be statistically significant.

The mark [3] stands for this setting: High dose 1.0 mg/animal qod × 4, loading dose 3 mg/animal.
Where [4] appears, read: Low dose 0.3 mg/animal qod × 4, loading dose 3 mg/animal.

B1: TTP-4000: four domain RAGE fusion protein: human RAGE V and C1 domains with interdomain linkers (to residue 251) fused to human IgG1 CH2 and CH3; SEQ ID NO: 34/56 (protein, listed as Homo sapiens)
chain: QNITARIGEPLVLKCKGAPKKPPQRLEWKLNTGRTEAWKVLSPQGGGPWDSVARVLPNGSLFLPAVGIQDEGIFRCQAMNRNGKETKSNYRVRVYQIPGKPEIVDSASELTAGVPNKVGTCVSEGSYPAGTLSWHLDGKPLVPNEKGVSVKEQTRRHPETGLFTLQSELMVTPARGGDPRPTFSCSFSPGLPRHRALRTAPIQPRVWEPVPLEEVQLVVEPEGGAVAPPSVFLFPPKPKDTLMISRTPEVTCVVVDVSHEDPEVKFNWYVDGVEVHNAKTKPREEQYNSTYRVVSVLTVLHQDWLNGKEYKCKVSNKALPAPIEKTISKAKGQPREPQVYTLPPSRDELTKNQVSLTCLVKGFYPSDIAVEWESNGQPENNYKTTPPVLDSDGSFFLYSKLTVDKSRWQQGNVFSCSVMHEALHNHYTQKSLSLSPGK
Regarding B1, the “inflammatory cytokines IL-1 and TNF-α” value in assay [1] (data not shown) is listed as “can reduce”. Also, the “Aβ plaques in the brain” value in assay [1] (treated for 3 months, vs vehicle and human IgG1, FIG. 14A) is “fewer Aβ plaques”. The “cognitive dysfunction (Morris water maze)” value in assay [1] (treated for 3 months, vs vehicle and human IgG1, FIG. 14B) is “less cognitive dysfunction”. Moreover, the “vascular smooth muscle cell proliferation (BrdU-positive nuclei)” value in assay [2] (4 days after injury, dose-responsive, FIG. 13B) is recorded as “significantly reduced”. In addition, in assay [2] (setting [3]), the Luminal area is reported as 0.16 ± 0.02 mm^2 and the Medial area is 0.11 ± 0.01 mm^2. Moreover, in assay [2] (setting [4]), the Luminal area was found to be 0.18 ± 0.04 mm^2 and the Medial area was 0.11 ± 0.02 mm^2.
